Data as given in the Human Domainome abundance scans (Beltran et al. 2025).

B1: POU domain, class 2, transcription factor 1, residues 285 to 354; numbered along this chain, P14859 (parent)
chain: LEELEQFAKTFKQRRIKLGFTQGDVGLAMGKLYGNDFSQTTISRFEALNLSFKNMCKLKPLLEKWLNDAE

Variants of: B1
Experiment: abundance fitness (aPCA) (normalised: wild type 0, dead -1); higher = more abundant; growth selection in yeast, the domain comes from the species named
Settings: Homo sapiens

Abundance fitness of substitutions, site by site:
A8: L -0.252, S -0.082, F -0.602, P -0.447, Q -0.283, D -0.968, W -0.528, H -0.499, V 0.01, R -0.154, T 0.004, N -0.625, C -0.05, M -0.205, I -0.008, K -0.72
K12: R 0.015, F -0.307, C -0.041, H -0.084, A 0.006, G -0.146, M -0.062, E -0.046, T -0.012, Y -0.157, I -0.007, P -0.085, S -0.044, N -0.107, V -0.05, L -0.156, W -0.364
T10: D -0.08, Q -0.012, H 0.019, I 0.01, M -0.052, E 0.04, N 0.004, S -0.027, C -0.041, F 0.023, K -0.014, Y -0.063, L -0.013, P -0.945, V -0.059, R -0.038, G -0.047
I16: Y -0.117, C -0.325, G -0.207, R -0.169, D -0.2, K -0.021, T -0.03, S -0.018, A -0.039, L -0.007, W -0.269, P -1.07, M 0.004, N -0.105, E 0.073, F -0.131, V -0.017
D24: V -0.218, P -0.846, W -0.238, E -0.008, M -0.11, L -0.192, K -0.124, S -0.097, H -0.06, Y -0.164, A -0.058, T -0.089, R -0.151, G -0.091
T21: W -0.753, D -0.191, I -0.598, A -0.158, E -0.191, K -0.065, Q -0.131, R -0.198, G -0.113, H -0.191, N -0.029, V -0.482, P -0.423, L -0.284, F -0.693
K9: R 0.011
E5: M -0.028, I -0.1, Y -0.071, S -0.039, P -0.571, R -0.034, H -0.116, N -0.059, L -0.022, T -0.004, K -0.017, Q -0.125
G26: T -0.038, A -0.027, Q -0.014, H -0.098, C -0.043, V -0.005, Y -0.043, N -0.033, M -0.04, I -0.076, W -0.051, F -0.082, S 0.025, L -0.054, P -0.276, E -0.025, R -0.087, K -0.095, D -0.052
V25: D -0.504, S -0.843, F -0.372, I -0.094, G -0.711, W -0.645, P -0.687, A -0.049, L -0.349
R14: H -0.156, L -0.105, C -0.233, V -0.004, F -0.32, M -0.089, Y -0.384, P -1.05, A -0.048, N -0.29, E 0.028, G -0.067, Q -0.1, T -0.024, S -0.052, K 0.004, W -0.296
L27: D -0.136, Q 0.003, K -0.052, F 0.01, M 0, H 0.049, E -0.002, P -0.31, I -0.005, R 0.016, A 0.073, N -0.13, C 0.039
Q22: A -0.014, I -0.076, N -0.119, C 0.031, E -0.024, Y -0.029, F -0.129, W -0.072, D -0.035, R -0.011, G -0.099, S -0.005, K 0.048, V 0, M -0.134, P 0.001, H -0.118, L -0.001, T -0.011
F11: S -0.206, A -0.166, D -1.19, W -0.105, Q -1.11, L -0.147, C -0.11, R -0.955, V -0.239, P -1.04, I -0.402, E -1.12, N -1.09, Y -0.238, M -0.166, G -0.848, K -1.09
G23: H 0.013, E 0.017, M -0.023, D 0.023, R -0.071, P -0.11, L -0.009, W -0.069, Y -0.028, S -0.021, K 0.065, A 0.025, C -0.073, V 0.113, T -0.004, N 0.013, Q -0.023
Q13: Y 0.011, I -0.121, F -0.054, C -0.235, R -0.061, P -0.202, K 0.042, T 0.023, S -0.005, W -0.188, L -0.005, N -0.049, A -0.02, E -0.01, M -0.024, H 0.015, V -0.014
K17: N 0.076, Q -0.023, P -0.966, T -0.029, C -0.046, G -0.027, Y -0.07, M -0.007, W -0.037, V -0.06, E 0.01, S -0.003, I -0.1, L -0.016, R -0.166, D 0.001
Q6: M -0.038, V -0.076, N 0.074, S -0.017, G -0.012, H -0.001, Y -0.03, L -0.031, I -0.009, P -0.245, E 0.034, W -0.058, T 0.025, A 0.015, F -0.059, K 0.034, D -0.086
R15: Y -0.387, V -0.815, S -0.974, I -1.1, C -0.655, E -0.971, L -0.826, K -1.09, P -1.09, H -0.725, N -0.902, W -0.953, G -1.03, T -1.03, A -0.835, F -0.533
F7: R -0.437, M -0.263, L -0.297, S -0.324, G -0.07, I -0.298, A -0.355, W 0.123, C -0.011, V 0.191
G19: H -0.564, M -0.471, V -0.214, A -0.391, D -0.314, S -0.288
L18: V -0.192, C -0.1, E -0.326, D -0.601, N -0.408, A -0.046, P -0.955, S -0.094, M -0.067, I -0.261, W -0.237, G -0.312, H -0.277, Y -0.041, T -0.386, R -0.143
F20: R -0.092, E -0.372, Q -0.038, P -0.827, K -0.073, W 0.004, H -0.045, A -0.035, N -0.197, L -0.081, C -0.016, Y 0.06, D -0.706, V -0.024, S -0.197, T -0.253
